Laboratory results taken from the supplement of paper PMC9170038.

Test system: K4 kissing-loop RNA reporter
Assay: apparent KD of K4 kissing-loop reporter; higher = weaker reporter binding
Details: Eterna round: R107
Description: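 RNA-MaP round R107: designed RNA switches with theophylline, tryptophan, arginine or FMN aptamers are transcribed on-chip within common flanks. They are titrated with a labelled K4 kissing-loop RNA reporter in RNA-MaP buffer (100 mM Tris pH 7.5, 80 mM KCl, 4 mM MgCl2), without ligand or with the indicated ligand. Median apparent KD per design.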

[1] = input ligand: theophylline 20 uM
[2] = input ligand: tryptophan 2.4 mM
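Also: bound reporter read as fluorescence of individual clusters on recovered sequencing chips by microscopy, with normalized cluster intensities fitted with a binding model.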

| Sequence | apparent KD of K4 kissing-loop reporter (input ligand: FMN 200 uM) | apparent KD of K4 kissing-loop reporter (input ligand: arginine 13.2 mM) | apparent KD of K4 kissing-loop reporter (input ligand: none) | apparent KD of K4 kissing-loop reporter [1] | apparent KD of K4 kissing-loop reporter [2] |
| --- | --- | --- | --- | --- | --- |
| UGAUAGGACAGAAGGAGCGGGAGUGAUGUUCCCAAAGGAAGGUCUAGCAAAGCUGGACCCUCCCAGGUAGGUCGCUGUCCUAUCU [ArgBX 4 #SwitchBubble #StaticStem] | 129 nM | 123 nM | 124 nM | 155 nM | 118 nM |
| UGAUAGGACAGAAGGAGCGGGAGUGAUGUUCCCAAUAGGAGGUCUAGCAAAGCUGGACCCUCCCAGGUAGGUCGCUGUCCUAUCU [ArgBX 3 #SwitchBubble #StaticStem] | 102 nM | 115 nM | 96.1 nM | 115 nM | 108 nM |
| UGAUAGGACAGAAGGAGCGGUAGUGAUGUUACCAAAAGGGUAAGGUGUCAAAAGACACCCUACCAGGUAGGUCGCUGUCCUAUCU | 110 nM | 96 nM | 104 nM | 84.3 nM | 82.8 nM |
| UGAUAGGACAGAAGGAGCGGUAGUGAUGUUACCAAAAGUAUAAGGUGUCAAAAGACACCCUGCCAGGUAGGUCGCUGUCCUAUCU | 157 nM | 210 nM | 178 nM | 198 nM | 152 nM |
| UGAUCAACAUCUGAUACCAGUCGCUCGAGUAAUCAACCGUGGCUAGUGAUGUUGGCUUUUGACCCUUGGCAGCAGAAUCGUGUCA [theeternabot_sameState_KL_Theo_B_20] | 134 nM | 131 nM | 112 nM | 189 nM | 120 nM |
| UGAUCUCGGCAGUGAUGUUGCAUAUGAGAAGGAGCGCACGAAAGUGCAGGUAGGUCGCUCAGCCACGACGAAAGUCGCGAGAUCU [#SwitchBubble 3 #K4Early] | 137 nM | 259 nM | 155 nM | 238 nM | 129 nM |
| UGAUUUAACUGAAGGAGCGGCAAUUGAGAAGGAAAUAUAGUGAUGUUAUAUAAGAGAGAGAGCCAGGUAGGUCGCAGAGGGAGGA [ExArgB.G] | 185 nM | 131 nM | 152 nM | 198 nM | 118 nM |
| UGCACCAGUGAUGUUGGUCGGCACCGAGAUACCAGCUGAUCUCUUAGCCCUUGGCAGCUCUUUAUUCGCGUUAUCAGUUUCUUCG [theeternabot_sameState_KL_Theo_A_16] | 428 nM | 368 nM | 464 nM | 416 nM | 345 nM |
| UGCAUGCUUAGAGUGAUGUUCUAAGAUGAUACCAGUGCUUUUUUGCACCCUUGGCAGCGUCUGAUUGCAUGCACGUCGAAAGACG | 288 nM | 287 nM | 279 nM | 266 nM | 289 nM |
| UGCCCGCGCGAAGGAUAUGAGAGCUUGUCUGUCCAGUGAUGUUGGAGGUUGGUGAUUUGCUAGGCGUCAGAAGGUCGAGCUUAUA [theeternabot_sameState_KL_FMN_B_14] | 192 nM | 94.4 nM | 153 nM | 150 nM | 133 nM |
| UGCCGGAAGGCGAGCGCUCCCACUCCGGAAGGAGCGCCCGUAAGGGCAGGUAGGUCGCCGGAGUGAUGUUCCGGUGGAGGGCUCG [#2 Exclusion - Arginine A Attempt #22 (Inspired by Omei)] | 203 nM | 128 nM | 193 nM | 185 nM | 244 nM |
| UGGACAUGACUCGAUAAGAGUCAAUGAGAUACCAGUGACGAAAGUCACCCUUGGCAGCUCAACUGCCAGUGAUGUUGGUAGUCCU [#SwitchBubble #StaticStem] | 739 nM | 424 nM | 742 nM | 793 nM | 566 nM |
| UGGACCGCCUGAGGAUAUAGGGACGAGUGAUGUUCGUGGACCAGAGCCAGUGAUGUUGGGUUAUUUCUAGAAGGCGGGCGAACUU [Exclusion FMN B GF11] | 120 nM | 167 nM | 188 nM | 154 nM | 146 nM |
| UGGACCUGACUCGAUAAGAGUCAAUGAGAUACCAGUGACGAAAGUCACCCUUGGCAGCUCCUGCCAGUGAUGUUGGUAAGGUCCU [#SwitchBubble 4 #StaticStem] | 416 nM | 252 nM | 437 nM | 575 nM | 299 nM |
| UGGAGUUGACGAAAAGUCAACUCCUGAGAUACCAGUGACGAAAGUCACCCUUGGCAGCUCACUGCCAGUGAUGUUGGAAAAUAAA [#OpenEnded 1] | 527 nM | 295 nM | 238 nM | 204 nM | 387 nM |
| UGGAGUUGACGAAAAGUCAACUCCUGAGAUACCAGUGACGAAAGUCACCCUUGGCAGCUCACUGGCAGUGAUGUUGCUAAAUAAA [KL-SSTheo-A2] | 57.3 nM | 51.4 nM | 122 nM | 63.5 nM | 32.6 nM |

| Sequence | apparent KD of K4 kissing-loop reporter (input ligand: FMN 200 uM) | apparent KD of K4 kissing-loop reporter (input ligand: arginine 13.2 mM) | apparent KD of K4 kissing-loop reporter (input ligand: none) | apparent KD of K4 kissing-loop reporter [1] | apparent KD of K4 kissing-loop reporter [2] |
| --- | --- | --- | --- | --- | --- |
| UGGAGUUGACGAAAAGUCAACUCCUGAGAUACCAGUGACGAAAGUCACCCUUGGCAGCUCACUGGCAGUGAUGUUGCUAUAUAAA [KL-SSTheo-A3] | 85.5 nM | 68.9 nM | 95.3 nM | 211 nM | 101 nM |
| UGGAGUUGACGAAAAGUCAACUCCUGAGAUCGAGGACCGGUACGGCCGCCACUCGAGCUAACUGCGAGUGAUGUUCGAAAAUAAA [#OpenEnded 1 - Direct theophylline transfer] | 191 nM | 313 nM | 235 nM | 393 nM | 97.1 nM |
| UGGAUAUAGUGAUGUUAUAUAGAGAUGGAUACCAGCUAAGAGAAUGGCCCUUGGCAGCCGAAAGAAGUAUCAUUAGAGAAGAAUG [ExTheophyl.Ag] | 261 nM | 249 nM | 259 nM | 276 nM | 214 nM |
| UGGAUAUAGUUUAGUCUGGUGAGGUCAGAUACCAGACUAGCGAUAGUCCCUUGGCAGCUGAUUAUGAUUGAGUGAUGUUCAAUCG [Theo A Ex t9] | 187 nM | 151 nM | 170 nM | 157 nM | 157 nM |
| UGGGAUGUUAAAGGAUAUAGCAGAUGAUACAAGAAAGUGAGUGAUGUUUAUGUAGAUGAUGAUAUGUUAGAAGGUUAACAAAACG [abcdefghijk] | 625 nM | 595 nM | 754 nM | 715 nM | 544 nM |
| UGGUUCAAUACGGCCGCCACUGGUGAGUGAUGUUUACCGUCUAUAUCAUGUGUCGAGAGCGCUAUCAGGACCGGGUAGGGACCGU [theeternabot_exclusion_KL_Trp_B_42] | 673 nM | 396 nM | 721 nM | 837 nM | 458 nM |
| UGUAAUGGCUGAGCAGCCGUGGUACGAGAUACCAGUGAUUUCGAUCACCCUUGGCAGCUCGGCGUGAGUGAUGUUCACGCUACAC [Theo A SS t12] | 201 nM | 199 nM | 203 nM | 207 nM | 199 nM |
| UGUACCGAGUCAGGAUAUGAACGACUGACAAAAGUCGGUCGAAUAUCCAGUGAUGUUGGAAAUAAAUCAGAAGGGACUUGGUACU [FmnBS 15 #SwitchBubble #StaticStem] | 130 nM | 805 nM | 974 nM | 840 nM | 726 nM |
| UGUACCGAGUCAGGAUAUGUCGUCGAAAGACGAAAUGGAGUGAUGUUCCUUAAACUGCGAAAGCAGACAGAAGGGAUUUGGUACU [FmnBS 29 U77] | 207 nM | 654 nM | 739 nM | 738 nM | 717 nM |
| UGUACUAUUGUGAGUGAUGUUCACUUCGAUACCAGCAGAGCGAUCUGCCCUUGGCAGCGAGUUAACUGCCGAAAGGCAAGGAUUA [Theo B SS t9] | 535 nM | 528 nM | 546 nM | 546 nM | 378 nM |
| UGUAUGUGAUUUGAUACCAGACCAGCUGGUGGAUCACGAGUGAUGUUCGUGUUGGUUUGGGUCCCUUGGCAGCAAAUCGCAUACU [KL-SSTheoB13] | 218 nM | 151 nM | 180 nM | 131 nM | 166 nM |
| UGUAUUUCGGCGGCCGCCACUGACCAUAGCCUUCGAUGGCCAGUGAUGUUGGCCUCUGGCUCUAACAGGACCGGGCCGAAUUGCG [Usvediin] | 303 nM | 165 nM | 190 nM | 168 nM | 132 nM |
| UGUCAUGGAAACAUGAACGUUGAAAUAAAUCGAGGACCGGUACGGCCGCCACUCGUAUAGCGGUCAGUGAUGUUGACUGUAAUAA [KL-SSTryp-A form2 sub9] | 94.9 nM | 112 nM | 110 nM | 132 nM | 98.7 nM |
| UGUCAUGGAAACAUGACCGUUAAAAUAAAUCGAGGACCGGUACGGCCGCCACUCGUAUAGCGGUCAGUGAUGUUGACUGUAGUAC [KL-SSTryp-A form2 sub12 #dotplot2>1] | 419 nM | 428 nM | 491 nM | 475 nM | 546 nM |
| UGUCAUUGGUCUGAUACCAGUACCCUUGGCAGCCAAGGAGUGAUGUUCCGAGGAUACCAGUGCCCUUGGCAGCAGACCGAUGACU [TheoBS 27 #DoubleAptamer #SwitchBubble] | 375 nM | 308 nM | 354 nM | 176 nM | 350 nM |
| UGUCAUUGGUCUGAUACCAGUUGAUAAACUGGAGUGAUGUUCCUCGACGAAUACGUCGACAACCCUUGGCAGCAGACCGAUGACU [TheoBS 14 #SwitchBubble 13 #StaticStem] | 683 nM | 627 nM | 713 nM | 354 nM | 607 nM |
